Measured values: the Immune Epitope Database (IEDB)

Tests used:
Test in all cases: IEDB peptide-MHC binding, cellular MHC/competitive/fluorescence; ≥ and ≤ were set here for values at or beyond the usual limits of such assays
[1] = biological target: HLA-A*02:01
[2] = biological target: HLA-A*68:02
[3] = biological target: HLA-A*02:02
[4] = biological target: HLA-A*02:03
[5] = biological target: HLA-A*02:06
[6] = source organism: Vaccinia virus WR
[7] = source organism: Influenza A virus
[8] = source organism: Mammarenavirus choriomeningitidis
[9] = source organism: Mammarenavirus whitewaterense
[10] = source organism: Mammarenavirus guanaritoense

Sequence | IC50 [1, 6] [µM] | IC50 [2, 6] [µM] | IC50 [3, 6] [µM] | IC50 [4, 6] [µM] | IC50 [5, 6] [µM] | also measured
KAMHDKKIDI | 50.6 | ≥ 70 | ≥ 70 | 46.2 | 26.4 | 
SVDEEGCGPL | 32.1 | 35.3 | 14.8 | 38.7 | 12.7 | 
DLAIKQYGDI | ≥ 70 | 7.72 | 17.9 | 33.3 | 46.8 | 
DILQMREIIT | 31.1 | 20.3 | 45.5 | 56.2 | 17.7 | 
AVPNGTLV |  |  |  |  |  | IC50 [1, 7]: ≥ 70 µM; IC50 [2, 7]: 42.9 µM; IC50 [3, 7]: 10.8 µM; IC50 [4, 7]: ≥ 70 µM; IC50 [5, 7]: 10.6 µM
TVLGVSIL |  |  |  |  |  | IC50 [1, 7]: 6.79 µM; IC50 [2, 7]: 15.8 µM; IC50 [3, 7]: 23.9 µM; IC50 [4, 7]: 14.2 µM; IC50 [5, 7]: 5.69 µM
HAKYMVTDKT | 51.8 | ≥ 70 | 9.03 | 35 | 64.9 | 
VATTHSWI |  |  |  |  |  | IC50 [1, 7]: ≥ 70 µM; IC50 [2, 7]: 56.2 µM; IC50 [3, 7]: ≥ 70 µM; IC50 [4, 7]: 62.3 µM; IC50 [5, 7]: ≥ 70 µM
SNSEDLLKAV |  |  |  |  |  | IC50 [1, 8]: 7.84 µM; IC50 [2, 8]: 43 µM; IC50 [3, 8]: 17.8 µM; IC50 [4, 8]: 15.2 µM; IC50 [5, 8]: 10 µM
YCHGILLKDV |  |  |  |  |  | IC50 [1, 9]: 11.4 µM; IC50 [2, 9]: 57.6 µM; IC50 [3, 9]: ≥ 70 µM; IC50 [4, 9]: 13 µM; IC50 [5, 9]: 15 µM
EAKTHFSTT | 27.7 | 13.2 | 36.6 | 25.1 | 55.2 | 
GVEVRYIDI | 16.4 | ≥ 70 | 12 | 45.3 | 10.2 | 
KNAGYLVGR |  |  |  |  |  | IC50 [1, 10]: 23 µM; IC50 [2, 10]: ≥ 70 µM; IC50 [3, 10]: 45.7 µM; IC50 [4, 10]: ≥ 70 µM; IC50 [5, 10]: ≥ 70 µM
GTMPSLTMAC |  |  |  |  |  | IC50 [1, 8]: 34.7 µM; IC50 [2, 8]: ≥ 70 µM; IC50 [3, 8]: 25.3 µM; IC50 [4, 8]: 16.4 µM; IC50 [5, 8]: 12.1 µM
KIQLFSDFTI | ≥ 70 | ≥ 70 | ≥ 70 | ≥ 70 | ≥ 70 | 
QARQMVQAMRA |  |  |  |  |  | IC50 [1, 7]: ≥ 70 µM; IC50 [2, 7]: 20 µM; IC50 [3, 7]: 24.9 µM; IC50 [4, 7]: ≥ 70 µM; IC50 [5, 7]: 55.2 µM
ELVMDKNHAI | ≥ 70 | 19.5 | 14.2 | ≥ 70 | ≥ 70 | 
AAFEDLRL |  |  |  |  |  | IC50 [1, 7]: ≥ 70 µM; IC50 [2, 7]: 59.8 µM; IC50 [3, 7]: 17.5 µM; IC50 [4, 7]: 48.9 µM; IC50 [5, 7]: 46.9 µM
EMQLKIDKLT | 55.9 | 43.1 | 9.66 | 6.82 | ≥ 70 | 
ELTNKKYRCM | ≥ 70 | 13.8 | ≥ 70 | ≥ 70 | ≥ 70 | 
TTELNIVDEI | 35.9 | 10.7 | 38.7 | ≥ 70 | 21.4 | 
TQFNFNGHT | ≥ 70 | 52.2 | 43.4 | 14.4 | 10 | 
LLTHGADPNA | 11.2 | ≥ 70 | 9.61 | 7.51 | 15.7 | 
ATVSADPL |  |  |  |  |  | IC50 [1, 7]: ≥ 70 µM; IC50 [2, 7]: 42.3 µM; IC50 [3, 7]: 52 µM; IC50 [4, 7]: ≥ 70 µM; IC50 [5, 7]: 21.5 µM
ATYQRTRA |  |  |  |  |  | IC50 [1, 7]: ≥ 70 µM; IC50 [2, 7]: ≥ 70 µM; IC50 [3, 7]: ≥ 70 µM; IC50 [4, 7]: ≥ 70 µM; IC50 [5, 7]: ≥ 70 µM
DLDKVYEIL | 29.7 | ≥ 70 | 19.6 | 26.3 | 53.6 | 
ATQFNFNGHT | 38.6 | 23.3 | 28.6 | 11.5 | 26.4 | 
